What is called EC50 is the concentration needed to bring the measured effect to its halfway point. A lower EC50 goes with greater potency.

One assay concerns H929 cells. The experiment in a line: alamarBlue cell viability assay, H929 cells. Type of assay: cell-based, human. Particulars: even at doses >20 μM. As to the method: (§1) Briefly, H929, U266-CD38^−, MM.1S, and Daudi cells were seeded at 5,000 cells/well in 96-well plates and co-cultured with fresh medium containing different test articles with the indicated concentrations at 37° C. for 5 hours, 1 day, 3 days, or 5 days. The viabilities of the cells were determined by alamarBlue™ cell viability reagent. About 10 μl alamarBlue™ cell viability reagent was added to the cells with a final concentration of 10% v/v, followed by incubating at 37° C. for 1.5 hours. The fluorescence was measured on a microplate reader in arbitrary fluorescent units following excitation at 560 nm and emission at 590 nm.
(§2) H929 cells were incubated for 5 hours, 1 day, 3 days, or 5 days (FIGS. 12A-12D), and MM.1S, U266-CD38-, and Daudi cells were incubated for 5 days (FIGS. 12E-12G). Then, cell viability was determined.
(In general: The colour change of resazurin is a common sign of viable cells or microbes.)

A further assay has as its system U266-CD38- cells. Put plainly: alamarBlue cell viability assay, U266-CD38- cells. Particulars: 5 days, FIG. 12F. Type of assay: cell-based. As for the experimental part:
as §1, §2

The next assay addresses T1, human CD38 (Homo sapiens, UniProt P28907).
T1 construct: The cDNA of full-length human CD38 was cloned into pCDH-CMV-MCS-Ef1α-Puro expression vector; expressed in transfected cells; host or cells: HEK293T (lentiviral transduction with pCDH-CMV-CD38, puromycin selection)
The experiment in a line: cell-based ELISA binding to human CD38-overexpressing 293T cells. As to the method: The cDNA of full-length human CD38 was cloned into pCDH-CMV-MCS-Ef1α-Puro expression vector to generate lentiviral-based CD38-expressing plasmid, pCDH-CMV-CD38. Lentivirus was packaged by co-transfecting pCDH-CMV-CD38, pCMV-VSV-G, and pCMV8R8.91 into HEK293T cells. Human CD38-overexpressing HEK293T cells were transduced with lentivirus infection and cultured with 1 μg/mL puromycin three days post-infection.
Background: An ELISA detects its analyte on a solid surface through an enzyme-linked reagent.

The subject of a further assay is MM.1S cells. The experiment in a line: alamarBlue cell viability assay, MM.1S cells. Type of assay: cell-based, human. Particulars: even at doses >20 μM. As for the experimental part: as §1, §2

B1: 2-chain (anti-CD38 scFv)-hIgG1.Fc-(Gly)3-BM fusion protein: dimer of (anti-CD38 scFv)-hIgG1.Fc-(Gly)3-BM, SEQ ID NO: 12; scFv VL and VH derived from daratumumab (protein)
chain: EIVLTQSPATLSLSPGERATLSCRASQSVSSYLAWYQQKPGQAPRLLIYDASNRATGIPARFSGSGSGTDFTLTISSLEPEDFAVYYCQQRSNWPPTFGQGTKVEIKGSTSGSGKPGSGEGSTKGEVQLLESGGGLVQPGGSLRLSCAVSGFTFNSFAMSWVRQAPGKGLEWVSAISGSGGGTYYADSVKGRFTISRDNSKNTLYLQMNSLRAEDTAVYFCAKDKILWFGEPVFDYWGQGTLVTVSSGGGASDKTHTCPPCPAPELLGGPSVFLFPPKPKDTLMISRTPEVTCVVVDVSHEDPEVKFNWYVDGVEVHNAKTKPREEQYNSTYRVVSVLTVLHQDWLNGKDYKCKVSNKALPAPIEKTISKAKGQPREPQVYTLPPSRDELTRNQVSLTCLVKGFYPSDIAVEWESNGQPENNYKTTPPVLDSDGSFFLYSKLTVDKSRWQQGNVFSCSVMHEALHNHYTQKSLSLSPGGGGACPGHA
modifications: homodimer
notes: scFv VL and VH derived from daratumumab
With B1, the “effect of cell death” value in the assay with H929 cells and with MM.1S cells was “no effect of cell death” throughout. In the assay on U266-CD38- cells, the killing effect entry is “did not possess any killing effect”. The same molecule registered a concentration for a half-maximal effect (EC50) with human CD38 of 0.84 nM.

Values taken from patent US20240342298A1, “METHODS OF TREATING TUMORS BY USING MOLECULAR CONSTRUCT” (Immunwork Inc., priority 2023, published 2024).
